Columns and labels:
[1] = molecular target: T1, HtrA1 (Homo sapiens, UniProt Q92743); test: HtrA1 activation by peptides (degradation of wt-tau, SDS/PAGE); assay type: biochemical; settings: peptide 200 μM in DMSO, HtrA1 (0.04 μg) preincubated 10 minutes at 37° C., wt-tau (2 μg) 10 minutes at 37° C., Coomassie gel, FIG. 18
T1 construct: made in house; host or cells: Escherichia coli BL21 D3+
Method: Purified wt-tau (2 μg) was incubated with HtrA1 (0.04 μg) for 10 minutes at 37° C. HtrA1 was preincubated with different peptides for 10 minutes at 37° C. All peptides were dissolved in DMSO and added to a final concentration of 200 μM. Wt-tau was incubated with DQLAFHQFYI (lane 1), KKKDSRIWWV (lane 2) and with HtrA1 and DMSO as a control (lane 3). Samples were loaded on a SDS/PAGE. The gel was stained with Coomassie Blue.
(§1) HtrA1 interacts with presenilin 1 (PS1). This was evident from data obtained from copurification, comigration during size exclusion chromatography and two hybrid analyses. […] Such a peptide could be used as a basis to synthesise a potent HtrA1 activator that could be of therapeutic relevance. […] This peptide did however not bind to HtrA1 composed of protease and PDZ domain as shown by Isothermal Titration calorimetry. Only after adding […] residues, the peptide did bind to HtrA1.

[2] = molecular target: T2, HtrA1 composed of protease and PDZ domain (Homo sapiens, UniProt Q92743); test: Binding of peptide to HtrA1 by Isothermal Titration calorimetry
T2 construct: HtrA1 composed of protease and PDZ domain
T2 sequence (Q92743 158-480 limits assumed): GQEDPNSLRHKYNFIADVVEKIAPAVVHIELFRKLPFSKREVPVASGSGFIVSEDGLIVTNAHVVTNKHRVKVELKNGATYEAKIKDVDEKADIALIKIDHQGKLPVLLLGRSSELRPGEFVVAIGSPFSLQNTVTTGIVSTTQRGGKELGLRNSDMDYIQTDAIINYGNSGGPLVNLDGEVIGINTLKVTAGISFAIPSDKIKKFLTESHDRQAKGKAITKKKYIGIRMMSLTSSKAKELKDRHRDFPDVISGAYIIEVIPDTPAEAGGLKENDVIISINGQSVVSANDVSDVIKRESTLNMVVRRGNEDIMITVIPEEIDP
Excerpt: as §1

[3] = molecular target: PDZ domain of HtrA1 (Homo sapiens, UniProt Q92743); settings: Runyon et al. Protein Sci. 16:2454-71 (2007); cited from earlier work
Sequence of PDZ domain of HtrA1 (Q92743 365-467 limits assumed): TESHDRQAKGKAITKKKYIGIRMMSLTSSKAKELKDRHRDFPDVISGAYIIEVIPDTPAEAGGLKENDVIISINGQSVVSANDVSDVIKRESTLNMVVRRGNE

T1 sequence (Q92743 158-480 limits assumed): as the sequence (Q92743 158-480 limits assumed) above

Substance: DQLAFHQFYI [peptide comprised of the 10 C-terminal residues of PS1 (presenilin 1)]
- activation of HtrA1 as shown by a more efficient degradation of tau [1]: activate HtrA1

Substance: DSRIWWV [reference compound]
- binding to HtrA1 [2]: not bind
- binding to the PDZ domain of HtrA1 [3]: excellent binding

Substance: KKKDSRIWWV [second peptide, DSRIWWV with 3 added N-terminal residues]
- binding to HtrA1 [2]: did bind
- activation of HtrA1 as shown by a more efficient degradation of tau [1]: weaker activator

Source: patent publication US20110212075A1, “SCREENING METHOD FOR POLYMORPHIC MARKERS IN HTRA1 GENE IN NEURODEGENERATIVE DISORDERS” (SIEMENS AKTIENGESELLSCHAFT, priority 2007, published 2011)
